According to patent publication US20250136718A1 (MABWELL THERAPEUTICS, published 2025):

T1: TMPRSS6 expressed in transfected HepG2 cells (HAMP-luciferase reporter assay) (UniProt Q8IU80 1-811, limits assumed)
T1 sequence (looked up): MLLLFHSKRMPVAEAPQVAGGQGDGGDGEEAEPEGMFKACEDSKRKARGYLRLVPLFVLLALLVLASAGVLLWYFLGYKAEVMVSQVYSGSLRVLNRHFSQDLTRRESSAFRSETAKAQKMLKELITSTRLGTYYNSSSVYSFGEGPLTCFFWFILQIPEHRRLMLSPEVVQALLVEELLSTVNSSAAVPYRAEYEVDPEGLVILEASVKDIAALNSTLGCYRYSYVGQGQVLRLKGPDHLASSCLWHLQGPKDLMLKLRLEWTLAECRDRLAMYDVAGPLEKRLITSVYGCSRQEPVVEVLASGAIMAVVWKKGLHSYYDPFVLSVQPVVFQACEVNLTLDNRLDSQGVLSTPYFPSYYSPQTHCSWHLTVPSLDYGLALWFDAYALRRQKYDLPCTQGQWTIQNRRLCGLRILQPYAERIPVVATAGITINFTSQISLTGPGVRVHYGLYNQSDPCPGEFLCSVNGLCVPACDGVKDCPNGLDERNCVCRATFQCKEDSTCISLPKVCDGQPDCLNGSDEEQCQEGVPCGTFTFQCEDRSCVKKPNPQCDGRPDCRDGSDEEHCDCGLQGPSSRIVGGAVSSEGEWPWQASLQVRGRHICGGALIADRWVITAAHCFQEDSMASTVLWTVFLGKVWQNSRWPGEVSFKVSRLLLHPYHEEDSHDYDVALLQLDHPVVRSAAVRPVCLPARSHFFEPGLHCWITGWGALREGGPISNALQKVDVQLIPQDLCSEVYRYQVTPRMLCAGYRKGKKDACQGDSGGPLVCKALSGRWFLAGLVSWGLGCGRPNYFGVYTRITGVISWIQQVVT

T2: human ecto-TMPRSS6-FLAG (UniProt Q8IU80 77-811)
T2 chain: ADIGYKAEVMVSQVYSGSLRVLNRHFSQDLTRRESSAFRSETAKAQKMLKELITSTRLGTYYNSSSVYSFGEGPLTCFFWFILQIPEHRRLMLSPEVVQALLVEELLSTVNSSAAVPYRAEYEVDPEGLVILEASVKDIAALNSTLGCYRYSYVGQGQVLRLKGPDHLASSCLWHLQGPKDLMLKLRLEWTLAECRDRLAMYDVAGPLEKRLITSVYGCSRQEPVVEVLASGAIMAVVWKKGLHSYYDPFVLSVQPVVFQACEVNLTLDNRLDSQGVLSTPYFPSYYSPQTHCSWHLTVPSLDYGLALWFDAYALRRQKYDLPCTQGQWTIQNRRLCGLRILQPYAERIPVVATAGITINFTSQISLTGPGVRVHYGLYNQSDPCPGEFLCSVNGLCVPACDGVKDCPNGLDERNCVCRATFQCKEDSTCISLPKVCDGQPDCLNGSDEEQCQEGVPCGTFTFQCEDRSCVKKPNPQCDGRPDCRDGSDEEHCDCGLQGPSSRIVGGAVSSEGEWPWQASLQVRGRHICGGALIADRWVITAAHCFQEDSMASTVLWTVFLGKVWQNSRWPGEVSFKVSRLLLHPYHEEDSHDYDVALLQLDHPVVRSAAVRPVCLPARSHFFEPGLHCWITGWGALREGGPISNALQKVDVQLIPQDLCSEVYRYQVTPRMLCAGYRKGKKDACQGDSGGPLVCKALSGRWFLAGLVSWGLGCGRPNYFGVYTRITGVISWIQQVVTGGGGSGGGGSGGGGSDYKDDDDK

B1: humanized anti-TMPRSS6 antibody variant hzMWTx-002 Var (antibody, human IgG1, kappa, N297A, V domains shown)
VH: EVQLVQSGAEVKKPGASVKVSCKASGFNIKDYYIHWVRQATGQGLEWMGRIDPEDAESEYAPKFQGRVTITADTSTDTAYMELSSLRSEDTAVYYCTRGDSMMVTYFDYWGQGTLVTVSS
VL: DIQMTQSPSSLSASVGDRVTITCKASQDVSTAVAWYQQKPGKAPKLLIYWAFTRHTGVPSRFSGSGSGTDYALTISSLQPEDFATYYCQQHYRSPWTFGGGTKVEIKR
notes: Human IgG1 / kappa
B2: humanized anti-TMPRSS6 antibody variant hzMWTx-003 Var (antibody, human IgG1, kappa, L234A L235A, V domains shown)
VH: QVQLVQSGAEVKKPGASVKVSCKASGFNIEDYYMHWVRQAPGQRLEWMGRIDPEDAETTYSPKFQGRVTIIPDTSANTAYMELSSLRSEDTAVYYCARSIYLDPMDYWGQGTLVTVSS
VL: DIQMTQSPKSLSASVGDRVTITCRASQDVTTALAWYQQKPGQSPKLLIYWATTRHSGVPSRFSGSGSGTDFTLTISSLQPEDFATYYCQQHYSTPYTFGQGTKLEIKR
notes: Human IgG1 / kappa
B3: humanized anti-TMPRSS6 antibody variant hzMWTx-001 Var (antibody, human IgG1, kappa, N297A, V domains shown)
VH: EVQLVQSGAEVKKPGASVKVSCKASGYTFTSYWITWVRQAPGQRLEWIGNIYPGSGSTYYNEKFKSKATITRDTSSRTAYMELSSLRSEDTAVYYCAPYDADYAMDYWGQGTLVTVSS
VL: DIQMTQSPSSLSASVGDRVTITCKASQDISNYLSWFQQKPGKAPKLLIYRANRLVEGVPSRFSGSGSGTDFTLTISSLQPEDFATYFCLQYDEFPLTFGGGTKVEIKR
notes: Human IgG1 / kappa
B4: MWTx-002 anti-TMPRSS6 monoclonal antibody (antibody, mouse IgG2b, kappa, V domains shown)
VH: EVQLQQSGAELVKPGASVKLSCTASGFNIKDYYIHWVKERTEQGLEWFGRIDPEDGESEYAPKFQGKATLTADTSSNTAYLQLSSLTSEDTAVYYCTRGDSMMVTYFDYWGQGTTLTVSS
VL: DIVMTQSHKFMSTSVGDRVSITCKASQDVSTAVAWYQQKPGQSPKLLIYWAFTRHTGVPDRFTSTGSGTDYALTISSVQAEDLALYYCQQHYRSPWTFGGGTKLEIKR
notes: Mouse monoclonal antibody from hybridoma (ATCC PTA-126760)
B5: MWTx-001 anti-TMPRSS6 monoclonal antibody (antibody, mouse IgG2a, kappa, V domains shown)
VH: QVQLQQPGAELAKPGASVKMSCKASGYTFTSYWITWVKQRPGQDLEWIGNIYPGSGSTYYNEKFKSKATLTVDTSSRTAYMQLSSLTSADSAVYYCAPYDSDYAMDYWGQGTSVTVSS
VL: DIKMTQSPSSMYASLGERVTITCKASQDINNYLSWFQQKPGKSPKTLIYRANRLVDGVPSRVSGSGSGQDYSLTISSLEYEDVGIYFCLQYDEFPLTFGAGTKLELKR
notes: Mouse monoclonal antibody from hybridoma (ATCC PTA-126759)
B6: MWTx-003 anti-TMPRSS6 monoclonal antibody (antibody, mouse IgG2b, kappa, V domains shown)
VH: EVQLQQSGAELVKPGASVKLSCTASGFNIEDYYIHWVKERTEQGLEWIGRIDPEDGETTYAPQFQGKATIIPDTSSNTAYMQLSSLTSEDAAVYYCARSIYLDPMDYWGQGTSVTVSS
VL: DIVMTQSHKFMSTSVGDRVSITCKASQDVTTAVAWYQQKPGQSPKILIYWATTRHTGVPDRFTGSISGTTYILTISSVQAEDLALYYCQQHYSTPYTFGGGTKLEIKR
notes: Mouse monoclonal antibody from hybridoma (ATCC PTA-126761); The recombinant version r4K12B has the same HC and LC; also called r4K12B; recombinant MWTx-003

These binders were tested against T1, TMPRSS6 expressed in transfected HepG2 … (assay: cell-based or functional assay).

Row | EC50 of the increase of HAMP promoter activity (HAMP-luciferase reporter assay, HepG2 cells expressing TMPRSS6, hBMP6) | Binder
1 | 0.3 µg/mL | B1
2 | 0.3 µg/mL | B2
3 | 0.8 µg/mL | B3
4 | 1 µg/mL | B4
5 | 3 µg/mL | B5
6 | 2 µg/mL | B6

Biological target: T2, human ecto-TMPRSS6-FLAG
Experiment: BLI (Octet)

Row | Kd | Binder
7 | 18.4 nM | B1
8 | 13.7 nM | B2
9 | 3.36 nM | B3
10 | 0.82 nM | B4
11 | 0.66 nM | B5
12 | 6.4 nM | B6
